According to the nanobody polyreactivity screen of Harvey et al. (2022):

Assay: yeast display, Sf9 membrane polyspecificity reagent, FACS + sequencing; frameworks hold sequencing errors
Outline: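 After 36–48 hours of galactose induction, yeast (Saccharomyces cerevisiae BJ5465) displaying a synthetic nanobody library were stained at 4 °C for 1 hour with 10% biotinylated, detergent-solubilized Sf9 membrane reagent. Streptavidin microbeads enriched the stained cells before FACS sorting into low and high (top ~1%) gates on anti-HA and streptavidin fluorescence. Each clone's polyreactivity label reflects its gate of origin.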

Sequence | polyreactivity (PSR sort gate)
QVQLVESGGGLVQAGGSLRLSCAASGFTFGVNAMGWYRQAPGKERELVAVITSGGNTYYADSVKWRFTISRDNAKNTVYLQMNSLKPEDTAVYYCAAYGRASWERDYWGQGTQVTVSS | low polyreactivity
QVQLVESGGGLVQAGGSLRLSCAASGFIFSWYAMGWYRQAPGKERELVAAISHDGGSTYYADSVKGRFTISRDNAKNTVYLQMNSLKAEDTAVYYCAAPLRALSQRMGYWGQGTQVTVSS | high polyreactivity
QVQLVESGGGLVQAGGSLRLSCAASGSIFSTYAMGWYRQAPGKERELVAAISVSGSSTYYADSVKGRFTISRDNAKNTVYLQMNSLKPEDTAVYYCAADVPYGASIISYDYWGQGTQVTVSS | low polyreactivity
QVHLVESGGALVQAGGSLRLSCAASGFIFRKYAMGWYRQAPGKERELVAAISYRGASTYYADSVKGRFTISRDNAKNTVYLQMNSLKPEDTAVYYCADRYSNPWARVSGYDYWGQGTQVTVSS | high polyreactivity
QVQLVESGGGLVQAGGSLRLSYAASGRTFYRYAMGWYRQAPGKERELVAVITSGSRTKYADSVKGRFTISRDNAKNTVYLQMNSLKPEDTAFYYCAARGLALEGKSSGEYWGQGTQVTVSS | high polyreactivity
QVQLVESGGGLVQAGGSLRLSCAASGRIFGTNAMGWYIQAPGKERELVADITSGGSTNYADSVKGRFTISRDNAKNTVYLQMNSLKPEDTAVYYCAADVIGDLRWYRDEYWGQGTQVTVSS | low polyreactivity
QVQLVESGGGLVQAGGSLSLSCAASGSILYINDMGWYRQAPGKERELVAAISWSGDSTIYADSVKGRFTISRDNAKNTVYLQMNSLKPEDTAVYYCNAVWYGGDMDYWGQGTQVTVSS | low polyreactivity
QVHLVESGGGLVPAGGSLRLTCAASGSTLWFNAMRWYRQAPGKERELVAAISFYSGSTYYSDSVKGRFTISRDNANNTVYLQMNSLKPEDTAVYYCAARRRWWGYDYWGQATQVTVSS | high polyreactivity
HVQLVDSGGGLVQAGGSLRLSCAASGFIFRRYAMGWYRQAPGKERELVAAIRSDGSTNYADSVKGRFTISRDNAKNTVYLQLNSLKPEDTAVYYCAATYYSYTWFSQYYYWGQGTQVTVSS | high polyreactivity
QVQLVESGGGLVQAGGSLRLSCAASGRTFDYNAMVWYRQAPGKERELVAAISGSGTRTFYADSVKGRFTISRDNAKNTVYLLMNSLKPVDTAVYYCAASHGWSKSIFYYWGQGTQVTVSS | high polyreactivity
QVQLVESGGGLVQAGGSLRLSCAASGFTLYRYVMGWYRQAPGKERELVAAITWSGGSTYYADSVKGRFTISRDNAKNTVYLQMNSLKPEDTAVYYCAARLNVRGWGQGTQVTVSS | low polyreactivity
QFQLVESGGGLVQAGGSLRLSCAASGGTFYVNDMGWYRQAPGKERELVATITYSGTSTYYADSVKGRFTISRDNAKNTVYLQMNSLKPEDTAVYYCATDVLLYFEPVNLDYWGQGTQVTVSS | low polyreactivity
QVLLVESGVGLVQAGGSLRLSCAASGRIFKLYAMGWYRQAPGKERELVAAITRRGGSTSYADSVKGRFTISRDNAKNTVYLQMNSLKPEDTAVYYCAASYTGRTVVQGYEYWGQGTQVTVSS | high polyreactivity
QVQLVESGGGLVQAGGSLRLSCAASGFTFPEYDMGWYRQAPGKERELVAAINYSDGRTFYADSVKGRFTISRDNAKNTVYLQMNSLKPEDTAVYYCATDLSYDVWFFGPDYDYWGQGTQVTVSS | low polyreactivity
QVQLVESGGGLVQAGGSLRLSCAASGFIFTGNVMGWYRQAPGKERELVAAIRWSGGRTYYADSVKGRFTISRDNAKNTVYLQMNSLIPEDTAVYYCNALGRVQGYKPGGLDYWGQGTQVTVSS | high polyreactivity
QVQLVESGGGLVQAGGSLRLSCAASGRIFYAYAMGWYRKAPGKERELVAAITETGGNTYYADSVKGRFTISRDNAKNTVYLQMNSLKPEDTAVYYCARKGRRTHHYGLYSSSVYYWGQGTQVTVSS | low polyreactivity
QVQLVESGGGLVQAGGSLRLSCGASGRIFGRYAMGWYRQAPAKERELVAVITFSGGDTFYADSVKGRFTISRDNAKNTVYLQMNSLKPEDTAVYYCAKSQGFETYRNVSIFGYWGQGTQVTVSS | low polyreactivity
QVQLQESGGGLVQAGGSLLSCAASGTISYYREMGWYRPAPGKERELVAGIGVGTITYYADSVKGRFTISRDNAKNTVYLQMNSRKPEDTAVYYCAAHIDGNDSHAYWGQGTQVTVSS | low polyreactivity
QVHLVESRGVLVQAGGSLRLSCAASGRTFPSYTMGWYRQAPGKERELVAAITWTGGSTYYADSVKGRFTISRDNAKNTVYFQMNSLKPDDTAVYYCADYDYWGQGTQVTVSS | low polyreactivity
QVQLVESGGGLVQAGGSLRLSCAASGSIFYRYAMGWSRPAPRKERELVAAISRSGGRTYYADSVKGRFTISRDISKKTVYLQMYSLKAEDTAVYYCADESNVGTDLGGDSWGQGTQVTVSS | high polyreactivity
QVQLVESGGGLVQAGGSLRLSCAASAGIFRYYAMGWYRQAPGKERELVAAITSSGTSTYYADSVKGRFTISRDNAKNTVYLQMNSLKPEDTAVYYCAATRTKRKFDYWGQGTQVTVSS | high polyreactivity
QVQLVESGGGLVQAGGSLRLSCAASGSIFQSNAMGWSRQAPGKERELVAAISSRGGRTYYADSVKGRFTISRDNAKYTVYLQLNSLKPEDTAVYYCAVVPFTEHDYWGQGTQVTVSS | high polyreactivity

Sequence | polyreactivity (PSR sort gate)
QVQLVESGGGLVQAGGSLRLSCAASGSTFSYNAMGWYRQAPGKERELVAAISRRGGGTYYADSVKGRFTISRDKAKNTVSLHMNSLKPVDTAVYYCNADIWYKTYDYWGQGTQVTVSS | low polyreactivity
QDQLVESGAGLVQAGRSLRLSCAASGSIFRWYAMGWYRQAPGKERELVAAISTSGGNTYYADSVKGRFTISRDNAKNTVYLEMKSLIPEDTAVYYCNALWYRSLYYRYDYWGQVTQVTVSS | high polyreactivity
QVQLVESGGGLVQAGGSLRISCAASARTLKRNAMGWYRQAPGKERELVAAISFRVTNTYYADSVKGRFTISRDNAKNTVYLQMYSLKPEDTAVYYCAVPDSRFYSPRRVSPHDYWGQGTQVTVSS | high polyreactivity
QVQLVESGGGLVQAGGSLRLSCAASGSIFTRYAMGWYRQAPGKERELVATISKRSGSTYYADSVKGRFTISRDNAKNTVYLQMISLKPEDTAVYYCAARNSGRVKYGYWGQGSQVTVSS | high polyreactivity
QVQLVESGGGLVQAGGSLRLSCAASGLIFATYTMGWYRQAPGKERELVAAITWSGGRTYYADSVKGRFTISRDNAKNTVYLQMNSLKPEDTAVYYCAADPSYALGYDYWGQGTQVTVSS | high polyreactivity
QVQLVESGGGLVQAGGSLRLSCAASGRIFYRYTMGRYRQAPGKERELVAAITSSSGSTYYADSVKGRFTISRDNAKNTVYLQMNSLKPEDTAVYYCAARIYHDIDTRSYYWGQGTQVTVSS | high polyreactivity
QVQLVESGGGLVQAGGSLRLSCAASGRTFRPYAMGWYRQAPGKERELVAAITSGVSTYYADSVKGRFTISRDNAKNTVYLQMNSLKPEDTAVYYCARGYLRSYRWSYTTRMGYWVQGTQVTVSS | high polyreactivity
QVQIVESGGGLVQAGRSLRLSCAASGFIFFPYVMGWYRPAPVKERELVARITSGGGSTYYADSVKGRFSISRDNAKNTVYLEMYSLKPEDTAVYYCAARFRFPPSYDYWGQCTQVTVSS | high polyreactivity
QVQLVESGGGLVQAGGSLRISCAASGSIFVEYDMGWYRQAPGKERELVADISGTGNTYYADSVKGRFTISRDNAKNTVYLQMNSLKPEDTAVYYCAAGTYYQNYWSPFVWYDYWGQGTQVTVSS | high polyreactivity
QVQLVESGGGLVQAGGSLRLSCAASGSIFAQYAMGWYRQAPGKERELVAAITRGGGNTYYADTVKGRFTISRDNAKNTVYLQMNSLKPEDTAVYYCAANRRDGYVYWGQGTQVTVSS | low polyreactivity
QVQLVESGGGLVQAGGSLRLSCAASGSTFPTYSMGWYRQAPGKERELVAAITSGSGTNTYYADSVKGRFTISRDNAKNTVYLQMNSLKPEDTAVYYCAKSFRKKYGWGQGTQVTVSS | high polyreactivity
QVQLVESRGGLVQAGGSLRLSCAASGSTFKPNAMGWYRPAPGKERELVAAITSGSTYYADSVKGRFTISRDNAKNTVYLQMNSLKPEDTAVYYCATSFRGKSPYRNSGSYYYWGQGTQVTVSS | high polyreactivity
QVQLVESGGGLVQAGGSLRLSCAASGFIFWWYAMGWYRQAPGKERELVATITASVGSTNYADSVKGRFTISRDNAKNTVYLQMNSLKPEDTAVYYCASDIIGAIRDWDHTRMDYWGQGTQVNVSS | low polyreactivity
QVQLQESGGGLVQAGGSLRQSYAASGYIFPSLAMGWYRQAPGKEREFVAAIGRGSTNNYADSVKGRFTISRDNAIYTAYQQMNSLKPEDTAVYYCGAAASPLTRHLYWGQGTQVTVSS | low polyreactivity
QVQLVESGGGLVQAGGSLRLSCAASGSIFYFNAMGWYRQAPGKERELVARISGSSGRTYYADSVKGRFTISRDNAKNTVYLQMNSLKPEDTAVYYCAARYYTSATMDYWGQGTQVTVSS | high polyreactivity
QVQLVESGGGLVQAGGSLRLICAASGRTFPYNAMGWYRQAPGKERELVAAISSGTRTDYADSVKGRFTISRDNAKNTVYLQMNSLKPEDTAVYYCAADYYHYLWRAYGFDYWGQGTQVTVSS | high polyreactivity
QVQLVESGGGLVQAGGSLRLRCAASGIIFRGYAMGWYRPAPGKERELVAGITSGGDTNYADSVKGRFTISRDNAKNTVYVQMNSMNPEDTEGYYCATSDRRYRGRHYPFYKFDYWGQGPQVTVSS | low polyreactivity
QVQLVESGGGLVQAGGSLRLSCAASGITFKGYTMGWYRQAPGKERELVATISRGGRTYADSVKGRFTISRDNAKNTVYLQMNSLKPEDTAVYYCAADKYWAQNDYWGQGTQVTVSS | low polyreactivity
QVQLVESGGGLVQAGGSLRLSCAASGRIFVYYAMGWYRQAPGKERELVAAITYSVDSTYYADSVKGRFTISRDNAKNTVYLQMNSLKPEDTAVYDCATDVDWAYGYQYEYWGQGTQVTVSS | low polyreactivity
QVQLVESGGGLVQAGGSLRLSCAASGSTFQGYAMGWYRQAPGKERELVAAISRSGSGTYYADSVKGRFTISRDNAKNTVYLQMNSLKPEDTAVYYCAKDDVRRSTSRHYYYWGHGTQVTVSS | high polyreactivity
QVQLVESGGGLVQAGGSLRLSCAASGSTFRSNAMGWYRQAPGKESELVAAITRRGSTYYADSVKGRFTISRDNAKNTVYLQMNSVKPEDTAVYYCAARVPGYASGASGYSSYRYEYWGQGTQVTVSS | high polyreactivity
